The subject of data set [1] is MS2 coat protein. In words: apparent KD of MS2 coat protein, switch ON state; designed switch direction (-1 OFF switch, 1 ON switch): -1; higher = weaker reporter binding. Particulars: FMN input: 0 or 200 uM; Eterna round: R93 (includes R88 designs). The procedure, abridged: (§1)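 Designed RNA switches were made by on-chip transcription from Illumina sequencing clusters and then titrated with SNAP-549-labelled MS2 coat protein. Twofold steps ran from 0.7 or 1.5 nM to 3 µM, each lasting 0.8–1.5 h early and 10–20 min late, in 100 mM Tris-HCl pH 7.5, 80 mM KCl, 4 mM MgCl2, without or with constant ligand. Apparent KD is the per-design median of normalised cluster binding-curve fits.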

For data set [2], the system named is MS2 coat protein. In words: apparent KD of MS2 coat protein, switch OFF state (with FMN for OFF switches, without FMN for ON switches); designed switch direction (-1 OFF switch, 1 ON switch): -1; higher = weaker reporter binding. The conditions noted are these: FMN input: 0 or 200 uM; Eterna round: R93 (includes R88 designs). The gist of the method: as §1

As to “AAAAUGUCAGGAUAUGUAGCAAAAGGUGAUCAAAAAAAGCUACAGAAGGGACAUGAGGAUCACCCAUGUAAAAA [Ex4: 935]”, the “apparent KD of MS2 coat protein” value in the data set on MS2 coat protein [1] was 1020 nM; with MS2 coat protein [2], 2870 nM.

Consider “AAACCACAUGAGGAUCACCCAUGUGAGGAUAUGAACGAAAAUAAAUAAAAAUAAAAGUUCAGAAGGCACAAAAA [66%, Wbt, 12]”, for which the entries for the “apparent KD of MS2 coat protein” value with MS2 coat protein [1] and in the data set on MS2 coat protein [2] were 21.3 nM and 23.6 nM, respectively.

With “AAACUACUAGGAUAUACAACGGUGUCCUAACUACUAAGAAGACAUGAGGAUCACCCAUGUAGAAGGAGUAGUGA [Sosogeen]”, the “apparent KD of MS2 coat protein” value was determined as 50.3 nM in the data set with MS2 coat protein [1] and 37.8 nM in the data set with MS2 coat protein [2].

“AAAGAUGCAGGAUAUACAUGAGGAUCACCCAUGUUAGACCUGAAAAGGGAAAAAGAAAGUAGAAGGGCAUAAAA [Ex 3 May 32]”: the “apparent KD of MS2 coat protein” value was found to be 13.4 nM in the data set with MS2 coat protein [1] and 17 nM in the data set on MS2 coat protein [2].

With “AAAGAUGGAGGAUAUACAUGAGGAUCACCCAUGUAGAAAAAAAAUUGGGAAAAAGAAAGUAGAAGGCCAAAAAA [Ex 3 May 43]”, the “apparent KD of MS2 coat protein” value in the data set with MS2 coat protein [1] worked out at 38.7 nM; in the data set on MS2 coat protein [2] it was 72.9 nM.

For the sequence “AAAGGACGAGGAUAUACAUGAGGAUCACCCAUGUAAAAAACGUAAUAAAAUAACUUAUGUAGAAGGCGUCCAAA [Mat - Exclusion 3 - Eli mod - D98]”, the entries for the “apparent KD of MS2 coat protein” value with MS2 coat protein [1] and in the data set on MS2 coat protein [2] were 26.3 nM and 214 nM, respectively.

On to “AAAGGACGAGGAUAUACAUGAGGAUCACCCAUGUAAAAAGCAUAAUAAAAGAACUUAUGUAGAAGGCGUCCAAA [69%, Moding Meechl, 5]”, for which the “apparent KD of MS2 coat protein” value with MS2 coat protein [1] is 41 nM; with MS2 coat protein [2] it was 189 nM.

Regarding “AAAGUGUGAGGAUAUGUCAAAGGUCACGAAAGUGACAAAGGACAGAAGGUACAUGAGGAUCACCCAUGUAAAAA [65% + different segment]”, the “apparent KD of MS2 coat protein” value in the data set on MS2 coat protein [1] amounted to 39.8 nM; with MS2 coat protein [2] it was 32 nM.

“AAAUAGCAAGGAUAUACAUGAGGAUCACCCAUGUGACCCAGGUAUGGCAUAGACUAGAGUAGAAGGUGCAAAUA [Mod 5 of Ex 3 Tesla 8 - Jieux - Exclusion 3]”: the “apparent KD of MS2 coat protein” value stood at 88.1 nM with MS2 coat protein [1] and 114 nM with MS2 coat protein [2].

Take “AAAUGACAUGAGGAUCACCCAUGUCAGGAUAUGACUUGAAAAAAAAAAAAAAAACAUGUCAGAAGGGACAUGAA [Design 48: Sub-opt E]”: the “apparent KD of MS2 coat protein” value in the data set on MS2 coat protein [1] is 17.2 nM; with MS2 coat protein [2], 16.8 nM.

Take “AAAUGCUGAGGAUAUACAUGAGGAUCACCCAUGUAAAAUAAAUAAUGGAUGUAAACGUGUAGAAGGCAGCAUAA [Exclusion 3.14b (FMN+ favored )]”: the “apparent KD of MS2 coat protein” value stood at 79.6 nM in the data set with MS2 coat protein [1] and 23 nM in the data set with MS2 coat protein [2].

For the sequence “AAAUUAGGAGGAUAUACAUGAGGAUCACCCAUGUGACGAUGUUACUGCAUGAAGCCAAGUAGAAGGUCUAAGAA [Lacelaatdi]”, the “apparent KD of MS2 coat protein” value in the data set with MS2 coat protein [1] was found to be 24.7 nM; with MS2 coat protein [2], 49.5 nM.

“AAAUUGUCAGGAUAUCGUAUAACUGGGAAAACCAGGAGAUACGAGAAGGGACAUGAGGAUCACCCAUGUAAAAC [May 94]”: the “apparent KD of MS2 coat protein” value with MS2 coat protein [1] was determined as 51.6 nM; with MS2 coat protein [2], 65.8 nM.

Regarding “AACAAACAUGAGGAUCACCCAUGUAAGGAUAUACGAAACAAACAAACAAACAAACAAAGUAGAAGGUACAGGAA [Exclusive 1]”, the “apparent KD of MS2 coat protein” value with MS2 coat protein [1] is 17.3 nM; in the data set on MS2 coat protein [2], 16.3 nM.

For “AACAAACAUGAGGAUCACCCAUGUAAGGAUAUGCGACAAAAACAAAAAACAAAAAAAAGCAGAAGGUACAACAA [Amethyst 100]”, the “apparent KD of MS2 coat protein” value in the data set with MS2 coat protein [1] is 23.4 nM; with MS2 coat protein [2] it was 30.4 nM.

As to “AACAAAUGAGGAUAUACAAACAAAAAAAACAAACAAAACAAACAUGAGGAUCACCCAUGUAGAAGGCAUAAACA [JR_Exc002_Sub901]”, the “apparent KD of MS2 coat protein” value stood at 24.8 nM in the data set on MS2 coat protein [1] and 24.5 nM in the data set on MS2 coat protein [2].

For “AACAAGACAGGAUAUACAUGAGGAUCACCCAUGUCACAACAAAGCAGCGCAACACAAAGUAGAAGGGUCAUGGA [Ruby 11]”, the figures for the “apparent KD of MS2 coat protein” value with MS2 coat protein [1] and with MS2 coat protein [2] were 81.2 nM and 82.6 nM, respectively.

In the case of “AACAGACAUGAGGAUCACCCAUGUGAGGAUAUCCAAAACGAUAAAACAAGAAUGACAGGGAGAAGGCACAGCAA [JR_Exc001_Sub008]”, the “apparent KD of MS2 coat protein” value was 65.2 nM in the data set with MS2 coat protein [1] and 52.2 nM with MS2 coat protein [2].

On to “AACAGACAUGAGGAUCACCCAUGUGAGGAUAUCCCAAUCGAUAGAACUAGAAUGACAAGGAGAAGGCACAGCAA [JR_Exc001_Sub005]”, for which the “apparent KD of MS2 coat protein” value with MS2 coat protein [1] and in the data set on MS2 coat protein [2] was 70.1 nM throughout.

With “AACAGGAGAGGAUAUACAUGAGGAUCACCCAUGUAGGAAACAAGCAGAGUACCAAAAAGUAGAAGGCUCAUGGA [Ruby 32]”, the “apparent KD of MS2 coat protein” value was 28.1 nM in the data set on MS2 coat protein [1] and 43.1 nM in the data set on MS2 coat protein [2].

The record behind these values is the supplement of paper PMC9170038.
